Patent publication US11634477 (dated 2023)

B1: C128 (antibody, V domains shown)
VH: EVQLLESGGGLVQPGGSLRLSCAASGFTFSTYAMSWVRQAPGKGLEWVSTITGSGRDTYYADSVKGRFTISRDNSKNTLFLQLNSLRAEDAAVYSCANHPLASGDDYYHYYMDVWGKGTTVTVSS
VL: EIVLTQSPGTLSLSPGERATLSCRASQSVNSRQLAWYQQKPGQAPRLLIYGASSRATGIPERFSGSGSGTDFTLTISRLESEDFAVYHCQQYGSSRALTFGGGTKVEIK
B2: C124 (antibody, V domains shown)
VH: EVQLVESGGGLVQPGGSLRLSCAASGFTFSGYSMNWVRQAPGKGPEWVSYISRSSSTIYYADSVKGRFTISRDNAKNSLYLQMNSLRDEDTAVYYCAREGARVGATYDTYYFDYWGQGTLVTVSS
VL: EIVLTQSPATLSLSPGERATLSCRASQSFSSYLAWYQQKPGQAPRLLIYDASNRATGIPARFSGSGSGTDFTLTISSLEPEDFAVYYCQQRNNWPPEWTFGQGTKVEIK
B3: C133 (antibody, V domains shown)
VH: QVQLVESGGGVVQPGRSLRLSCAASGFTFSSYAMHWVRQAPGKGLEWVAVILYDGSNKYYADSVKGRFTISRDNSKNTLYLQMNSLRAEDTAVYYCARDSDVDTSMVTWFDYWGQGTLVTVSS
VL: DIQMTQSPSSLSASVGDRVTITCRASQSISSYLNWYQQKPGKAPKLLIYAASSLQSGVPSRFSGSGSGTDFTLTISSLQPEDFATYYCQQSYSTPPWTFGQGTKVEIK
B4: C120 (antibody, V domains shown)
VH: EVQLVESGGGLIQPGGSLRLSCAASGFTVSSNYMTWVRQAPGKGLEWVSLIYPGGSTYYADSVKGRFTISRDNSKNTLYLQMNSLRAEDTAVYYCAREGMGMAAAGTWGQGTLVTVSS
VL: AIRMTQSPSSLSASVGDTVTITCQASQDISKYLNWYQQKPGKAPKLLIYDASNLETGVPSRFSGSGSGTDFTFTISSLQPEDIATYYCQQYDNLPQTFGGGTKVEIK
B5: C004 (antibody, V domains shown)
VH: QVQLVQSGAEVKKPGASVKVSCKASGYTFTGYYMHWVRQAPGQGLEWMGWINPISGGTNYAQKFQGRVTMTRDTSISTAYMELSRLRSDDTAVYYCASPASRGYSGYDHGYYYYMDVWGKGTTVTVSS
VL: AIRMTQSPSSLSASVGDRVTITCQASQDISNYLNWYQQKPGKAPKLLIYDASNLETGVPSRFSGSGSGTDFTFTISSLQPEDIATYYCQQYDNLPITFGQGTRLEIK
B6: C139 (antibody, V domains shown)
VH: EVQLVESGGGVVQPGRSLRLSCAASGFTFSSYAMHWVRQAPGKGLEWVAVISYDGSNKYSADSVKGRFTISRDNSKNTLYLQMNSLRAEDTAVYYCAKGGAYSYYYYMDVWGKGTTVTVSS
VL: not shown
B7: C118 (antibody, V domains shown)
VH: QVQLVESGGGVVQPGRSLRLSCAASGFTFSNYAMHWVRQAPGKGLEWVAVISYDGSNKYYADSVKGRFTISRDNSKNTLYLQMNSLRAEDTAIYYCASGYTGYDYFVRGDYYGLDVWGQGTTVTVSS
VL: QPVLTQSPSASASLGASVKLTCTLSSGHSSYAIAWHQQQPEKGPRYLMKLNTDGSHSKGDGIPDRFSGSSSGAERYLTISSLQSEDEADYYCQTWGTGILVFGGGTKLTVL
B8: C151 (antibody, V domains shown)
VH: EVQLVESGGGLVKPGGSLRLSCAASGFTFSSYNMNWVRQAPGKGLEWVSCISSSSSYIYYADSVKGRFTISRDNAKNSLYLQMNSLRAEDTAVYYCARERGYDGGKTPPFLGGQGTLVTVSS
VL: NFMLTQPHSVSESPGKTVTISCTGSSGSIASNYVQWYQQRPGSAPTTVIYEDNQRPSGVPDRFSGSIDSSSNSASLTISGLKTEDEADYYCQSYDSSNYWVFGGGTKLTVL
B9: C204 (antibody, V domains shown)
VH: EVQLLESGGGLEQPGGSLRLSCAASGFTFSTYAMSWVRQAPGKGLEWVSAISGSGAGTFYADSVKGRFTISRDNSKNTLYLQMNSLRAEDTAVYYCARESDCGSTSCYQVGWFDPWGQGTLVTVSS
VL: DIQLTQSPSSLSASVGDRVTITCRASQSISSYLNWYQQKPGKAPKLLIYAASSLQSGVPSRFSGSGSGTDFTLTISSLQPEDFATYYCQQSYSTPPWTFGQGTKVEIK
B10: C115 (antibody, V domains shown)
VH: QVQLVESGGGLIKPGRSLRLSCTASGFTFGDYAMTWFRQAPGKGLEWVGFIRSKAYGGTTGYAASVKYRFTISRDDSKSIAYLQMDSLKTEDTAVYYCTRWDGWSQHDYWGQGTLVTVSS
VL: DIVMTQSPLSLSVTPGEPASISCRSSQSLLHSNGNNYFDWYLQKPGQSPQLLIYLGSNRASGVPDRFSGSGSGTDFTLKISRVEAEDVGVYYCMQVLQIPYTFGQGTKLEIK
B11: C148 (antibody, V domains shown)
VH: EVQLVESGGGLVQPGGSQRLSCAASGFTVSSNYMSWIRQAPGKGLEWVSVIYSGGSAYYVDSVKGRFTISRDNSKNTLYLQMNSLRPEDTAVYYCARIANYMDVWGKGTTVTVSS
VL: EIVMTQSPATLSVSPGERATLSCRASQSVSSHLAWYQQKPGQAPRLLIYGASTRATGIPTRFSGSGSGTEFTLTISSLQSEDFAVYYCQQYNNWPPLTFGGGTKVEIK
B12: C214 (antibody, V domains shown)
VH: QVQLVESGGGVVQPGRSLRLSCAASGFTFSSYGMHWVRQAPGKGLEWVAAIWYDGSNKHYADSVKGRFTISRDNSKNTLYLQMNSLRAEDTAVYYCARDVGRVTTWFDPWGQGTLVTVSS
VL: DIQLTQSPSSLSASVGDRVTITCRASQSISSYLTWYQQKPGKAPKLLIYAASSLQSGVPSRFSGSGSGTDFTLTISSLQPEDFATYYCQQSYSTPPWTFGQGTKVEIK
B13: C002 (antibody, V domains shown)
VH: EVQLVESGGGVVQPGRSLRLSCAASGFTFSIYGMHWVRQAPGKGLEWVAVISYDGSNKYYADSVKGRFTISRDNSKNTLYLQMNSLRAEDTAVYYCAKEGRPSDIVVVVAFDYWGQGTLVTVSS
VL: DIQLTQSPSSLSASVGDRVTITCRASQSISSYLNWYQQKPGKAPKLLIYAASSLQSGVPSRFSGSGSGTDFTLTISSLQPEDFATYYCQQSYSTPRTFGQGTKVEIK
B14: C145 (antibody, V domains shown)
VH: EVQLVESGGGLIQPGGSLRLSCAASGFSVSSNYMSWVRQAPGKGLEWVSVIYSGGSTYYADSVKGRFTISRDNSKNTLYLQMNSLRAEDTAVYYCAREGEVEGYYDFWSGYSRDRYYFDYWGQGTLVTVSS
VL: QSALTQPASVSGSPGQSITISCTGTSSDVGGYNYVSWYQQHPGKAPKLMIYDVSNRPSGVSNRFSGSKSGNTASLTISGLQAEDEADYYCSSYTSSTTRVFGTGTRVTVL
B15: C207 (antibody, V domains shown)
VH: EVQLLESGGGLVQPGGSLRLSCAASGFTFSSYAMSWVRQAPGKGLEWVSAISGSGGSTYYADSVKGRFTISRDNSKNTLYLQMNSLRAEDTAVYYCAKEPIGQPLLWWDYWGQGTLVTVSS
VL: EIVLTQSPATLSLSPGERATLSCRASQSVSSYLAWYQQKPGQAPRLLIYDASNRATGIPARFSGSGSGTDFTLTISSLEPEDFAVYYCQQRSNWPRGFGQGTKVEIK
B16: C113 (antibody, V domains shown)
VH: QVQLVESGGGVVQPGRSLRLSCAASGFTFSNFGMHWVRQAPGKGLEWVAVIWYDGSNKYYADSVKGRFTISRDNSKNTLYLQMNSLRAEDTAVYYCARGVNPDDILTGVDAFDIWGQGTMVTVSS
VL: DIQMTQSPSTLSASVGDRVTITCRASQSMSSWLAWYQQKPGNAPKLLIYKASSLESGVPSRFSGSGSGTEFTLTISSLQPDDFATYYCQQHNSSPLTFGGGTKVEIK
B17: C134 (antibody, V domains shown)
VH: EVQLLESGGGLVQPGGSLRLSCAASGFTFSNYAMSWVRQAPGKGLEWVSAISGSDGSTYYAGSVKGRFTISRDNSKNTLYLQMNSLRAEDTAVYYCAKDPLITGPTYQYFHYWGQGTLVTVSS
VL: SYELTQPPSVSVAPGKTARITCGGNNIGSKSVHWYQQKPGQAPVLVIYYDSDRPSGIPERFSGSNSGNTATLTISRVEAGDEAEYHCQVWDSSSDRPGVVFGGGTKLTVL
B18: C114 (antibody, V domains shown)
VH: QVQLVESGGGLIQPGGSLKLSCVVSGFTVSKNYISWVRQAPGKGLEWVSVIFAGGSTFYADSVKGRFAISRDNSNNTLFLQMNSLRVEDTAIYYCARGDGELFFDQWGQGTLVTVSS
VL: QSVLTQPPSVSGAPGQRVTISCTGTSSNIGAGYDVHWYQQLPGRAPKVLISGNNIRPSEVPDRFSGSRSGTSASLAITSLQPEDEAQYYCQSYDSSLYAVFGGGTKLTVL
B19: C016 (antibody, V domains shown)
VH: EVQLVESGGGVVQPGRSLRLSCAASGFTFSRYGMHWVRQAPGKGLEWVAVISYDGSNKYYADSVKGRFTISRDNSKNTLYLQMNSLRAEDTAVYYCAKVTAPYCSGGSCYGGNFDYWGQGTLVTVSS
VL: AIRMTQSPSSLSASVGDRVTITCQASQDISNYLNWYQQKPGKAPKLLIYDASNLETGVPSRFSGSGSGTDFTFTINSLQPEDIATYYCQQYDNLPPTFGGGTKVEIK
B20: C208 (antibody, V domains shown)
VH: EVQLVQSGAEVKKPGESLKISCKGSGYSFTSYWIGWVRQMPGKGLEWMGIIYPGDSDTRYSPSFQGQVTISADKSISTAYLKWSSLKASDSAMYYCARGPNLQNWFDPWGQGTLVTVSS
VL: EIVLTQSPGTLSLSPGERATLSCRASQSVSGSYLAWYQQRPGQAPRLLIYGASSRATGIPDRFSGSGSGTDFTLTISRLEPEDFAVYYCQQYGSSLTFGGGTKVEIK
B21: C017 (antibody, V domains shown)
VH: EVQLVESGGGLVQPGRSLRLSCAASGFTFDDYAMHWVRQAPGKGLEWVSGISWNSGTIGYADSVKGRFTISRDNAKNSLYLQMNSLRAEDTAFYYCAKAGVRGIAAAGPDLNFDHWGQGTLVTVSS
VL: EIVLTQSPATLSLSPGERATLSCRASQSVSSYLAWYQQKPGQAPRLLIYDASNRATGIPARFSGSGSGTDFTLTISSLEPEDFAVYYCQQRITFGQGTRLEIK
B22: C155 (antibody, V domains shown)
VH: EVQLVESGGGLIQPGGSLRLSCAASGFIVSSNYMSWVRQAPGKGLEWVSVIYSGGSTFYADSVKGRFTISRDNSKNTLYLQMNSLRAEDTAVYYCARDFGEFYFDYWGQGTLVTVSS
VL: EIVMTQSPATLSVSPGERATLSCRASQSVSSNLAWYQQKPGQAPRLLIYGASTRATAIPARFSGSGSGTEFTLTISSLQSEDFAVYYCQQYNNWPRTFGQGTKVEIK
B23: C029 (antibody, V domains shown)
VH: QVQLQESGPGLVKPSQTLSLTCTVSGGSISSGGYYWSWIRQHPGKGLEWIGYIYYSGSTYYNPSLKSRVTISVDTSKNQFSLKLSSVTAADTAVYYCARTMYYYDSSGSFDYWGQGTLVTVSS
VL: not shown

How the values were obtained:
SARS-CoV-2 RBD = SARS-CoV-2 RBD (SARS-CoV-2, UniProt P0DTC2); experiment: ELISA
SARS-CoV RBD = SARS-CoV RBD (SARS-CoV, UniProt P59594); experiment: ELISA

Binder | EC50 (SARS-CoV-2 RBD) | EC50 (SARS-CoV RBD)
B1 | 1.95 ng/mL | > 1000 ng/mL
B2 | 2.23 ng/mL | > 1000 ng/mL
B3 | 1.98 ng/mL | > 1000 ng/mL
B4 | 1.41 ng/mL | > 1000 ng/mL
B5 | 2.39 ng/mL | > 1000 ng/mL
B6 | 1.89 ng/mL | > 1000 ng/mL
B7 | 3.45 ng/mL | 3.82 ng/mL
B8 | 4.3 ng/mL | > 1000 ng/mL
B9 | 3.73 ng/mL | 9.41 ng/mL
B10 | 3.4 ng/mL | > 1000 ng/mL
B11 | 64.7 ng/mL | > 1000 ng/mL
B12 | 5.75 ng/mL | > 1000 ng/mL
B13 | 3.14 ng/mL | > 1000 ng/mL
B14 | 3.86 ng/mL | > 1000 ng/mL
B15 | 1.87 ng/mL | > 1000 ng/mL
B16 | 6.93 ng/mL | > 1000 ng/mL
B17 | 1.57 ng/mL | > 1000 ng/mL
B18 | 9.51 ng/mL | > 1000 ng/mL
B19 | 7.41 ng/mL | > 1000 ng/mL
B20 | > 1000 ng/mL | > 1000 ng/mL
B21 | 1.63 ng/mL | > 1000 ng/mL
B22 | 3.3 ng/mL | > 1000 ng/mL
B23 | 4.13 ng/mL | > 1000 ng/mL
